According to the supplement of paper PMC7125110:
± gives the standard error. For some assays here: Fewer inactive variants are shown than the library holds.

B1: glmS ribozyme (parent)
chain: AUAAAAGCGCCAGAACUACAGAAAUGUAGUUGACGAGGAGGAGGUUUAUCGAAUUUUCGGCGGAUGCCUCCAAA

Legend:
Settings in all cases: with glucosamine-6-phosphate
glucosamine-6-phosphate [1] = variants of: B1; assay: kcat; higher = faster cleavage; RNA array
Procedure, shortened: (§1)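 Tracking of barcoded ribozyme variants used a hybridised Cy3 probe at 37 °C, after in situ transcription by E. coli RNA polymerase on sequenced MiSeq chips. The flowed solution held 40 μM to 10 mM glucosamine-6-phosphate in HEPES/KCl/Mg(OAc)2 buffer, and imaging ran over ~14 h. kobs was taken from exponential decay fits of normalised per-tile medians, and kcat and KM from weighted Michaelis–Menten fits.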

glucosamine-6-phosphate [2] = variants of: B1; assay: KM; higher = weaker cofactor use; RNA array
Procedure, shortened: as §1

glucosamine-6-phosphate [3] = variants of: B1; assay: self-cleavage kobs at 40 uM GlcN6P; higher = faster cleavage; RNA array
Procedure, shortened: as §1

glucosamine-6-phosphate [4] = variants of: B1; assay: self-cleavage kobs at 160 uM GlcN6P; higher = faster cleavage; RNA array
Procedure, shortened: as §1

glucosamine-6-phosphate [5] = variants of: B1; assay: self-cleavage kobs at 640 uM GlcN6P; higher = faster cleavage; RNA array
Procedure, shortened: as §1

glucosamine-6-phosphate [6] = variants of: B1; assay: self-cleavage kobs at 2500 uM GlcN6P; higher = faster cleavage; RNA array
Procedure, shortened: as §1

glucosamine-6-phosphate [7] = variants of: B1; assay: self-cleavage kobs at 10000 uM GlcN6P; higher = faster cleavage; RNA array
Procedure, shortened: as §1

Variant | kcat (glucosamine-6-phosphate [1]) [s⁻¹] | KM (glucosamine-6-phosphate [2]) [µM] | self-cleavage kobs at 40 uM GlcN6P (glucosamine-6-phosphate [3]) [s⁻¹] | self-cleavage kobs at 160 uM GlcN6P (glucosamine-6-phosphate [4]) [s⁻¹] | self-cleavage kobs at 640 uM GlcN6P (glucosamine-6-phosphate [5]) [s⁻¹] | self-cleavage kobs at 2500 uM GlcN6P (glucosamine-6-phosphate [6]) [s⁻¹] | self-cleavage kobs at 10000 uM GlcN6P (glucosamine-6-phosphate [7]) [s⁻¹]
U30A G66A | 0.0034 ± 0.00044 | 1870 ± 370 | 8.19e-05 ± 1e-05 | 0.00021 ± 5.2e-05 | 0.000751 ± 0.00018 | 0.00197 ± 0.00024 | 0.0029 ± 0.00037
G9A G13C U30G G63U U69G | < 1e-05 | – | < 1e-05 | – | – | < 1e-05 | –
C10A U46G C50U C68U | 3.67e-05 ± 1.3e-05 | – | – | – | – | – | –
G32U G41U | 0.000152 ± 3.7e-06 | 1640 ± 170 | – | – | 4.19e-05 ± 1.5e-05 | 9.36e-05 ± 1.9e-05 | 0.00013 ± 1e-05
U31C C71U | 0.00657 ± 0.0031 | – | 0.000177 ± 1.7e-05 | 0.000289 ± 3.6e-05 | 0.00111 ± 0.00013 | 0.00536 ± 0.00083 | 0.00504 ± 0.00056
A52U C68A | 2.14e-05 ± 8.2e-06 | – | – | – | – | – | –
G59C U69A | 2.45e-05 ± 5.3e-06 | – | – | – | – | – | –
A15G C34G | < 1e-05 | – | < 1e-05 | – | < 1e-05 | – | –
A15C G40U | 0.000399 ± 4.3e-05 | 1140 ± 230 | – | 5.39e-05 ± 1e-05 | 0.000135 ± 1.4e-05 | 0.000333 ± 5.3e-05 | 0.000348 ± 4.2e-05
A6C U54A | 0.000158 ± 2.8e-05 | 6600 ± 2300 | – | – | – | 4.87e-05 ± 1.5e-05 | 9.38e-05 ± 1.7e-05
A14C C67G | 0.000353 ± 6.7e-05 | 2730 ± 860 | – | 3.67e-05 ± 7.3e-06 | 6.56e-05 ± 5.7e-06 | 0.000156 ± 1.5e-05 | 0.000293 ± 2.8e-05
G43U U46G | 2.88e-05 ± 5.1e-06 | – | – | – | < 1e-05 | – | –
A14U C50A | 1.95e-05 ± 4.6e-06 | – | – | – | – | – | –
A6U G38C | < 1e-05 | 3580 ± 1000 | < 1e-05 | < 1e-05 | < 1e-05 | – | –
U30C A39G | 0.00121 ± 0.00015 | 3930 ± 730 | – | 5.74e-05 ± 1.6e-05 | 0.00016 ± 2.7e-05 | 0.00046 ± 6.8e-05 | 0.000888 ± 0.00014
C58A C61G | 1.62e-05 ± 5.8e-06 | – | – | – | – | – | –
C16U U47G A52U | 0.000133 ± 8.3e-06 | 1230 ± 200 | – | – | 4.73e-05 ± 1.3e-05 | 8.23e-05 ± 2.3e-05 | 0.000122 ± 2.5e-05
C67U C71A | 0.000182 ± 3.8e-05 | – | – | 6.95e-05 ± 1.8e-05 | 6.34e-05 ± 9e-06 | 0.000131 ± 1.6e-05 | 0.000168 ± 2.2e-05

Variant | kcat (glucosamine-6-phosphate [1]) [s⁻¹] | KM (glucosamine-6-phosphate [2]) [µM] | self-cleavage kobs at 40 uM GlcN6P (glucosamine-6-phosphate [3]) [s⁻¹] | self-cleavage kobs at 160 uM GlcN6P (glucosamine-6-phosphate [4]) [s⁻¹] | self-cleavage kobs at 640 uM GlcN6P (glucosamine-6-phosphate [5]) [s⁻¹] | self-cleavage kobs at 2500 uM GlcN6P (glucosamine-6-phosphate [6]) [s⁻¹] | self-cleavage kobs at 10000 uM GlcN6P (glucosamine-6-phosphate [7]) [s⁻¹]
A14C C58G | 0.000165 ± 6.6e-05 | – | – | – | 3.92e-05 ± 1e-05 | 4.23e-05 ± 8.3e-06 | 0.000108 ± 1.2e-05
A53U U55A | 0.026 ± 0.012 | – | 0.000486 ± 8.9e-05 | 0.000887 ± 0.00017 | 0.00403 ± 0.00095 | 0.00891 ± 0.0017 | 0.0215 ± 0.0042
C16U A64C | 0.000145 ± 2.5e-05 | 2130 ± 970 | – | – | 2.44e-05 ± 1.1e-05 | 9.71e-05 ± 1.7e-05 | 0.000113 ± 1.6e-05
A36C C68A | 1.33e-05 ± 2.1e-06 | – | – | – | – | – | –
G32A G59U | 1.15e-05 ± 1.2e-06 | 3350 ± 1300 | – | – | – | – | –
A15U C67G | 0.000167 ± 1.9e-06 | 1030 ± 37 | – | 2.34e-05 ± 1.1e-05 | 6.43e-05 ± 9.7e-06 | 0.000115 ± 1.8e-05 | 0.000153 ± 1.2e-05
G37C A64C | 1.32e-05 ± 3.3e-06 | – | – | – | – | – | < 1e-05
A15U A52C | < 1e-05 | 537 ± 110 | < 1e-05 | < 1e-05 | < 1e-05 | – | –
G29U U45A | 0.0141 ± 0.0034 | 2740 ± 820 | 0.000225 ± 4.9e-05 | 0.000796 ± 0.00018 | 0.00237 ± 0.00044 | 0.00765 ± 0.0017 | 0.0103 ± 0.005
C16G A53G | 0.00701 ± 0.0012 | 2160 ± 510 | 0.000168 ± 3.2e-05 | 0.000453 ± 7.3e-05 | 0.00151 ± 0.00025 | 0.00339 ± 0.00099 | 0.0061 ± 0.0011
A39U G43A | 0.000177 ± 1.5e-05 | 1170 ± 280 | – | – | 5.75e-05 ± 8.5e-06 | 0.000139 ± 1.6e-05 | 0.000152 ± 1.4e-05
A14G U57C | 0.000646 ± 0.00012 | 2530 ± 740 | – | 3.29e-05 ± 1.4e-05 | 0.000142 ± 1.8e-05 | 0.000276 ± 4.7e-05 | 0.000577 ± 0.0001
C11U C70U | 0.000987 ± 0.00026 | 772 ± 320 | 5.88e-05 ± 6.9e-06 | 0.000165 ± 2.1e-05 | 0.000397 ± 3.7e-05 | 0.000735 ± 9.1e-05 | 0.00165 ± 0.00027
G37U C71G | 1.72e-05 ± 4.2e-06 | – | – | – | – | – | –
C11U A12C | 9.58e-05 ± 3.4e-06 | 1050 ± 120 | – | – | 3.76e-05 ± 7e-06 | 6.24e-05 ± 1.2e-05 | 8.81e-05 ± 9e-06
C10U C11U A12G | 2.44e-05 ± 6.4e-06 | – | – | < 1e-05 | – | – | –
G29A C68G | 3.6e-05 ± 1e-05 | – | – | 2.59e-05 ± 1.2e-05 | 4.89e-05 ± 9.9e-06 | 3.97e-05 ± 1.1e-05 | –
